Assay results as given in patent publication US11091795B2, “Compositions and methods for diagnosing and treating arrhythmias” (Arizona Board of Regents on Behalf of the University of …, priority 2016, dated 2021).
“Also recorded” adds a separate entry of the source. One block for each molecule: values may come before it.

Tests used:
sickle mice = details: cited from earlier work
[1] = tested on: adults with moderate to severe sickle cell disease; details: cited from earlier work
[2] = tested on: patients with sickle cell disease; details: cited from earlier work
[3] = tested on: PBMCs isolated and cultured from patients with sickle cell disease; experiment: Heme administration in vitro to PBMCs from sickle cell disease patients; type: cell-based, human; details: heme 100 uM, 16 h
Excerpt: IL-18, associated with prolonged QTc and mortality, is induced by heme in PBMCs.

IL-18 = target: T1, IL-18 (Mus musculus, UniProt P70380); experiment: Chronic (sustained) inhibition of IL-18 with IL-18bp in sickle mice; type: in vivo; details: for myocardial fibrosis (Picrosirius Red staining): chronic/sustained (3 weeks) IL-18 inhibition; for diastolic function (change in E/E′, LV filling pressures, on echocardiography): chronic/sustained IL-18 inhibition
T1 construct: endogenous in cells; host or cells: sickle mice, in vivo (circulating and cardiac IL-18)
T1 sequence (P70380 36-192): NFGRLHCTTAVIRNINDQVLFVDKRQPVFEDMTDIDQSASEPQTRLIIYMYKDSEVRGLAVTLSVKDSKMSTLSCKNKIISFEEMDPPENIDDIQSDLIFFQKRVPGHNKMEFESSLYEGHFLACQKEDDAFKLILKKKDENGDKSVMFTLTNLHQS
Method: Based on the association of IL-18 with myocardial fibrosis and diastolic dysfunction, the functional role of IL-18 in the development of myocardial fibrosis and diastolic dysfunction was tested. […] The mechanisms of how IL-18 mediates sickle cardiomyopathy with prolonged repolarization, diastolic dysfunction, and myocardial fibrosis are unclear. Given the absence of significant IL-18 effect on WT mice and the vulnerability of sickle mice, microarray transcript profiling in murine LV tissue between the two mice was performed. A total of 1611 probes (812 annotated genes) were differentially expressed between sickle and WT mice (P≤0.05). […] Additionally, RT-PCR and western blot reveal sickle mice have reduced myocardial KCND2 and KCND3 gene expression levels (FIG. 6B) consistent with increased APD.
It is contemplated that IL-18/IL-18R signaling implicates Nox4 function in sickle heart arrhythmic response. In an acute setting, it is contemplated that IL-18-mediated Nox4 activation downregulates KCND2/KCND3 expression and associated Ito activity which prolongs APD promoting VT; in a chronic setting, it is contemplated that IL-18 induces Nox4-mediated myocardial apoptosis and subsequent fibrosis resulting in pathologic electrophysiological remodeling enhancing VT vulnerability. Briefly, myocardial action potentials reflect the sequential activation and inactivation of inward depolarizing (Na^+, Ca^2+) and outward repolarizing (K^+) current-carrying ion channels. The K^+ channel function determines membrane potential and refractoriness of the myocardium. […] These observations are coupled with increased nitrotyrosine (ROS marker) levels and p38 MAPK activation (within 5 mins and sustained for 45 mins) in vivo. Reduced Ito is also associated with IL-18-induced prolonged APD, promoting early after depolarizations (EADs) and reentry formation in sickle cell hearts. Several reports have shown direct Nox4 interactions with IL-18R as well as Nox4-medaited p38 MAPK activation in cardiomyocytes resulting in reduced KCND2/KCND3 mRNA expression (and Ito current) (Li et al., 2012. J Mol Cell Cardiol 52:971-977; Zhou et al., 2008. J Mol Cell Cardiol 45:832-838; Zhou et al., 2006. Circ Res 98:1040-1047). Single cell voltage clamp and organ level optical mapping is used to evaluate the downstream effects of IL-18 and Nox4. […] Based on these acute and chronic data, a mutant mouse with cardiac-specific Nox4 genetic depletion in a sickle cell mouse background is generated to functionally validate the role of cardiac Nox4 in sickle cell cardiomyopathy and inducible VT.

sickle mice hearts = experiment: Optical mapping of ex vivo perfused hearts with exogenous IL-18 in the perfusate; set-up: species or system mouse
Excerpt: (§1) Optical mapping: WT and sickle male mice (12-16 weeks) hearts underwent optical mapping. The optical apparatus has been previously described (Rutledge et al., 2014; supra). The values are presented as the mean±standard deviation. Student t test was used and a P value of <0.05 was considered statistically significant. Sample […] and activation maps with BCL pacing were made for both the control and sickle cell hearts.
(§2) To establish cause and effect, acute effects of IL-18 on the myocardial electrical phenotype were evaluated further in sickle mice. […] Longer perfusion of IL-18 led to the development of multiple PVCs and short-lived VTs (n=4/4 hearts, FIG. 5E).

[4] = tested on: transient outward K+ current (Ito) in sickle mouse cardiomyocytes; experiment: Voltage clamp (patch clamp) of Ito in isolated cardiomyocytes; type: cell-based
Method: IL-18 reduces Ito in isolated sickle cardiomyocytes. Voltage clamp experiments were performed on fresh cardiomyocytes isolated from a sickle mouse exposed to IL-18 (FIG. 10).
Patch clamp protocol of Ito: Cardiomyocytes were isolated by standard enzymatic techniques and patch-clamp recordings of Ito were performed with an Axopatch-200B amplifier (Molecular Devices, Sunnyvale, Calif.) as described previously (El Gebeily et al., Pharmacol. 2010 Mar. 10; 629(1-3):96-103). Bath solution was Tyrode solution (mmol/L): 140 NaCl; 5.4 KCl; 1.8 CaCl2; 1 MgCl2; 0.33, Na2HPO4; 10 HEPES, 5.5 glucose (pH adjusted to 7.4 with NaOH). Pipette solution is (mmol/L): 110 K^+-aspartate, 20 KCl, 8 NaCl, 1 MgCl2, 1 CaCk2, 10 BAPTA, 4 K2ATP and 10 HEPES (pH adjusted to 7.2 KOH). Whole-cell voltage-clamp recordings were made using the ruptured patch-clamp technique with a patch-clamp amplifier, Axopatch 200 B (Axon Instruments, Foster City, USA). Pipettes resistances was ˜2 MΩ when filled with pipette solution. Series resistance in the whole-cell mode was compensated. Voltage-clamp currents were low-pass filtered at 1 kHz and digitized at 2 kHz. The total K+ current (Ipeak) was constructed from the current elicited by a series of 5 s test potentials at 10 mV increment from −110 mV to +50 mV from a holding potential of −80 mV at a frequency rate of 0.1 Hz. […] The data were recorded using pClamp 10.6 and analyzed with Clampfit (Axon Instruments, Foster City, USA). Current amplitudes were normalized to the cell capacitance and expressed as pA/pF. All experiments were carried out at room temperature (20-22° C.).

WT mice hearts = experiment: Optical mapping of ex vivo perfused hearts with exogenous IL-18 in the perfusate (WT); set-up: species or system mouse; details: IL-18 via the perfusate (20 ng/min)
Excerpt: as §1, §2

[5] = tested on: cardiac Nox4, p38, nitrotyrosine in sickle mice; experiment: Acute IL-18 administration in vivo, cardiac Nox4/p38/nitrotyrosine; set-up: species or system mouse; details: within 5 minutes of IL-18 administration to sickle mice (5 ug/kg)
Excerpt: Nitrotyrosine levels are considered a stable byproduct of the presence of peroxynitrite (ROS).

[6] = short-term administration, tumor necrosis factor-α-induced vaso-occlusion model
[7] = sustained (3 weeks) IL-18 inhibition
[8] = IL-18 via the perfusate (20 ng/min), sickle mice hearts
[9] = sickle mouse cardiomyocytes in the presence of IL-18

Molecule: NC(=O)NO [hydroxyurea]
- hemolytic anemia at baseline (sickle mice; long-term administration in sickle mice): does not improve
- animal survival (sickle mice; [6]): prolonged animal survival
- leukocyte recruitment to the microvasculature (sickle mice; [6]): significantly altered
- frequency of painful crises, episodes of acute chest syndrome, transfusion requirements and hospitalizations ([1]; large multicenter study): marked decrease
- survival ([1]; patients): improved survival

Molecule: Nc1ncn([C@H]2C[C@H](O)[C@@H](CO)O2)c(=O)n1 [decitabine, 5-Aza-2′-deoxycytidine]
- sickle cell patients responding with an increase in HbF levels ([2]; including patients who had failed to respond to hydroxyurea): 100%
- dose-limiting toxicity ([2]; sickle cell patients): reversible neutropenia
- increase in total hemoglobin levels ([2]; sickle cell patients): 2 g/dL
- reticulocyte counts ([2]; sickle cell patients): decreased

Molecule: C=CC1=C(C)c2cc3[n-]c(cc4[n-]c(cc5nc(cc1n2)C(C)=C5C=C)c(C)c4CCC(=O)O)c(CCC(=O)O)c3C.[Fe+2] [heme]
- IL-18 protein expression [3]: induced IL-18 protein expression
- IL-18 protein expression ([3]; listed as Heme): induces IL-18 protein expression

- myocardial fibrosis (Picrosirius Red staining) (IL-18): reduced
- myocardial fibrosis (Picrosirius Red staining) (IL-18; listed as IL-18 bp): reduced myocardial fibrosis
- diastolic function (change in E/E′, LV filling pressures, on echocardiography) (IL-18): improved cardiac function
- diastolic function (change in E/E′, LV filling pressures, on echocardiography) (IL-18; listed as IL-18 bp): improved
- myocardial apoptosis (IL-18; [7]): reduced myocardial apoptosis
B1: IL-18bp: naturally occurring protein that binds to IL-18 and prevents it from activating its receptor (protein, UniProt Q9Z0M9 29-193, looked up)
Interleukin-18-binding protein: TSAPQTTATVLTGSSKDPCSSWSPAVPTKQYPALDVIWPEKEVPLNGTLTLSCTACSRFPYFSILYWLGNGSFIEHLPGRLKEGHTSREHRNTSTWLHRALVLEELSPTLRSTNFSCLFVDPGQVAQYHIILAQLWDGLKTAPSPSQETLSSHSPVSRSAGPGVA
- cardiac IL-18R (β subunit) and Nox4 expression (IL-18; [7]): reduced cardiac Nox4 and IL-18R expression levels; also recorded: reduced cardiac IL-18R (β subunit) and Nox4 expression

B2: IL-18: exogenous IL-18 cytokine administered to mouse hearts, mice or cardiomyocytes (protein, UniProt P70380 36-192, looked up)
Interleukin-18: T1 sequence (P70380 36-192)
- action potential duration (APD) (sickle mice hearts; [8]): prolonged APD; also recorded: APD prolongation
- conduction velocity (CV), transverse and longitudinal (sickle mice hearts; [8]): reduced trends in CV; also recorded: Trends in slowing
- rise time of action potentials (sickle mice hearts; [8]): Increased rise time
- electrical effects after 20 minutes of IL-18 administration (sickle mice hearts; after 20 minutes of perfusion): APD prolongation, atrioventricular block, and a slowed heart rate
- development of multiple PVCs and short-lived VTs (sickle mice hearts; longer perfusion of IL-18, sickle hearts): 4/4
- reduction of Ito ([4]; in 10 minutes, fresh cardiomyocytes isolated from a sickle mouse): 47 % reduction
- peak Ito ([4]; sickle group, IL-18 25 ng/mL, at 50 mV): 3.1±0.8 pA/pF
- Ito (in words) [4, 9]: reduce Ito current; also recorded: further reduced
- fast inactivating Ito [4, 9]: mostly abolished
- changes in APD, CV and rise time (WT mice hearts): no significant changes
- cardiac Nox4, p38 activation and nitrotyrosine levels [5]: increases Nox4 levels; also recorded: acutely induces; also recorded: activated
